According to patent US20020155563A1 (Bristol-Myers Squibb, published 2002):

Target: T1, Grb2 (adapter protein, from Jurkat T cell lysates) (human, UniProt P62993 1-217)
T1 construct: also called adapter protein Grb2
Experiment: pull-down from Jurkat lysates on Talon beads, anti-Grb2 immunoblot
Protocol: In this Example, experiments were performed to determine if human MIST provided by the present invention associated with signaling proteins critical for cell activation. For this purpose, cell lysates from unstimulated Jurkat T cells, or TCR/CD3-activated Jurkat T cells, were prepared and precipitated with Talon resin beads (Clontech, Palo Alto, Calif.) preloaded with equivalent amounts (5 μg total) of His-MIST fusion proteins. The phosphotyrosine content of precipitated proteins was analyzed by SDS-PAGE followed by Western blotting with an anti-phosphotyrosine specific antibody (4G10, UBI, Hauppague, N.Y.).
More specifically, Jurkat T cells (10⁷/lane) were unstimulated, or were stimulated with monoclonal antibody (MoAb) to the T-cell receptor TCR/CD3 (G19-4-BMS) for 5 minutes at 37° C., and then lysed in 1% NP40-containing lysis buffer and incubated with Talon beads preloaded with equivalent amounts (50 μl of slurry resin) of the indicated His-MIST fusion proteins. Reactants and immunoprecipitates were subjected to SDS-PAGE on 4-20% gradient gels. […] Blot stripping was performed and the membrane was subsequently re-probed with anti-Grb2 MoAb (Santa Cruz Biotechnology, Inc., Santa Cruz, Calif.), anti-Cbl MoAb (Santa Cruz Biotechnology, Inc., Santa Cruz, Calif.), or anti-Vav1 MoAb (Upstate Biotechnology, Inc., Lake Placid, N.Y.).

binding result: no binding
B1: His-MIST-SH2 (poly-histidine tagged MIST SH2 domain, residues 320-443) (other, not shown: small tags and cut ends)
chain: QHNEWYIGEYSRQAVEEAFMKENKDGSFLVRDCSTKSKEEPYVLAVFYENKVYNVKIRFLERNQQFALGTGLRGDEKFDSVEDIIEHYKNFPIILIDGKDKTGVHRKQCHLTQPLPLTRHLLPL
notes: Recombinant, Sf9 cells; also called His-MIST-SH2 fusion protein
